B1: binding protein DB177 (designed binder)
chain: CSRDFTPPTVKILQSSCDGGGHFPPTIQLLCLVSGYTPGTINITWLEDGQVMDVDLSTASTTQEGELASTQSELTLSQKHWLSDRTYTCQVTYQGHTFEDSTKKCADSNPRGVSVFLFPPKPKDTLMISRTPEVTCVVVDLAPSKGTVKFNWYVDGVEVHNAKTKPREKQRNGTLTVVSVLTVLHQDWLNGKEYKCKVTHPHLPRALEKTISKAKGQPREPQVYTLPPSREEMTKNQVSLTCLVKGFYPSDIAVEWESNGQPENNYKTTPPVLDSDGSFFLYSKLTVDKSRWQQGNVFSCSVMHEALHNHYTQKSLSLSPGK
notes: Engineered human IgG Fc whose CH2 carries BC-LOOP, DE-TURN and FG-LOOP of IgE CH3
B2: binding protein DB-B64 (designed binder)
chain: CPAPELLGGPSVFLFPPKPKDTLMISRTPEVTCVVVDLAPSKGTVKFNWYVDGVEVHNAKTKPREKQRNGTLTVVSVLTVLHQDWLNGKEYKCKVTHPHLPRALEKTISKAKGQPREPQVYTLPPSREEMTKNQVSLTCLVKGFYPSDIAVEWESNGQPENNYKTTPPVLDSDGSFFLYSKLTVDKSRWQQGNVFSCSVMHEALHNHYTQKSLSLSPGK
notes: Engineered IgG Fc with IgE CH3 loops
B3: Her2-specific binding protein DB872 (antibody, human IgG1, kappa)
heavy: EVQLVESGGGLVQPGGSLRLSCAASGFTFTDYTMDWVRQAPGKGLEWVADVNPNSGGSIYNQRFKGRFTLSVDRSKNTLYLQMNSLRAEDTAVYYCARNLGPSFYFDYWGQGTLVTVSSASTKGPSVFPLAPSSKSTSGGTAALGCLVKDYFPEPVTVSWNSGALTSGVHTFPAVLQSSGLYSLSSVVTVPSSSLGTQTYICNVNHKPSNTKVDKKVEPKSCDKTHTCPPCPADSNPRGVSVFLFPPKPKDTLMISRTPEVTCVVVDLAPSKGTVKFNWYVDGVEVHNAKTKPREKQRNGTLTVVSVLTVLHQDWLNGKEYKCKVTHPHLPRALEKTISKAKGQPREPQVYTLPPSREEMTKNQVSLTCLVKGFYPSDIAVEWESNGQPENNYKTTPPVLDSDGSFFLYSKLTVDKSRWQQGNVFSCSVMHEALHNHYTQKSLSLSPGK
light: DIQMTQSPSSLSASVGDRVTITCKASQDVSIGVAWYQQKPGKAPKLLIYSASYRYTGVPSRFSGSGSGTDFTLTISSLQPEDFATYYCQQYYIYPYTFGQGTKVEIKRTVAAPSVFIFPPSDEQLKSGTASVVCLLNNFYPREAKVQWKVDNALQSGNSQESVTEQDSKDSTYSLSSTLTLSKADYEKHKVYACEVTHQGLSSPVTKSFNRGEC
notes: IgG-like molecule: Pertuzumab Fab fused to the engineered Fc (on the basis of DB366); copies: 2 + 2
B4: binding protein DB364 (designed binder)
chain: DFTPPTVKILQSSCDGGGHFPPTIQLLCLVSGYTPGTINITWLEDGQVMDVDLSTASTTQEGELASTQSELTLSQKHWLSDRTYTCQVTYQGHTFEDSTKKCADSNPRGVSVFLFPPKPKDTLMISRTPEVTCVVVDLAPSKGTVKFNWYVDGVEVHNAKTKPREKQRNGTLTVVSVLTVLHQDWLNGKEYKCKVTHPHLPRALEKTISKAKGQPREPQVYTLPPSREEMTKNQVSLTCLVKGFYPSDIAVEWESNGQPENNYKTTPPVLDSDGSFFLYSKLTVDKSRWQQGNVFSCSVMHEALHNHYTQKSLSLSPGK
notes: as for B2
B5: binding protein DB365 (designed binder)
chain: TKKCADSNPRGVSVFLFPPKPKDTLMISRTPEVTCVVVDLAPSKGTVKFNWYVDGVEVHNAKTKPREKQRNGTLTVVSVLTVLHQDWLNGKEYKCKVTHPHLPRALEKTISKAKGQPREPQVYTLPPSREEMTKNQVSLTCLVKGFYPSDIAVEWESNGQPENNYKTTPPVLDSDGSFFLYSKLTVDKSRWQQGNVFSCSVMHEALHNHYTQKSLSLSPGK
notes: as for B2
B6: Her2-specific binding protein DB871 (antibody)
heavy: EVQLVESGGGLVQPGGSLRLSCAASGFTFTDYTMDWVRQAPGKGLEWVADVNPNSGGSIYNQRFKGRFTLSVDRSKNTLYLQMNSLRAEDTAVYYCARNLGPSFYFDYWGQGTLVTVSSASTKGPSVFPLAPSSKSTSGGTAALGCLVKDYFPEPVTVSWNSGALTSGVHTFPAVLQSSGLYSLSSVVTVPSSSLGTQTYICNVNHKPSNTKVDKKVEPKSCSRDFTPPTVKILQSSCDGGGHFPPTIQLLCLVSGYTPGTINITWLEDGQVMDVDLSTASTTQEGELASTQSELTLSQKHWLSDRTYTCQVTYQGHTFEDSTKKCADSNPRGVSVFLFPPKPKDTLMISRTPEVTCVVVDLAPSKGTVKFNWYVDGVEVHNAKTKPREKQRNGTLTVVSVLTVLHQDWLNGKEYKCKVTHPHLPRALEKTISKAKGQPREPQVYTLPPSREEMTKNQVSLTCLVKGFYPSDIAVEWESNGQPENNYKTTPPVLDSDGSFFLYSKLTVDKSRWQQGNVFSCSVMHEALHNHYTQKSLSLSPGK
light: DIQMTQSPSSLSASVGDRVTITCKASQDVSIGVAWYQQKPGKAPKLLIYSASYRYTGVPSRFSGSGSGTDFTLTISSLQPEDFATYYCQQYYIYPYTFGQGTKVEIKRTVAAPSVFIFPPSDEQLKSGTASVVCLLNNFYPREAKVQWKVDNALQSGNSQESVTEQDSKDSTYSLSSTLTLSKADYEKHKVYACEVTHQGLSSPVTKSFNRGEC
notes: IgG-like molecule: Pertuzumab Fab fused to the engineered Fc (on the basis of DB177); copies: 2 + 2
B7: GPC3-specific binding protein DB-B230 (antibody, human IgG1, kappa)
heavy: QVQLVQSGAEVKKPGASVKVSCKASGYTFTDYEMHWVRQAPGQGLEWMGALDPKTGDTAYSQKFKGRVTLTADKSTSTAYMELSSLTSEDTAVYYCTRFYSYTYWGQGTLVTVSSASTKGPSVFPLAPSSKSTSGGTAALGCLVKDYFPEPVTVSWNSGALTSGVHTFPAVLQSSGLYSLSSVVTVPSSSLGTQTYICNVNHKPSNTKVDKKVEPKSCDKTHTCPPCPADSNPRGVSVFLFPPKPKDTLMISRTPEVTCVVVDLAPSKGTVKFNWYVDGVEVHNAKTKPREKQRNGTLTVVSVLTVLHQDWLNGKEYKCKVTHPHLPRALEKTISKAKGQPREPQVYTLPPSREEMTKNQVSLTCLVKGFYPSDIAVEWESNGQPENNYKTTPPVLDSDGSFFLYSKLTVDKSRWQQGNVFSCSVMHEALHNHYTQKSLSLSPGK
light: DVVMTQSPLSLPVTPGEPASISCRSSQSLVHSNRNTYLHWYLQKPGQSPQLLIYKVSNRFSGVPDRFSGSGSGTDFTLKISRVEAEDVGVYYCSQNTHVPPTFGQGTKLEIKRTVAAPSVFIFPPSDEQLKSGTASVVCLLNNFYPREAKVQWKVDNALQSGNSQESVTEQDSKDSTYSLSSTLTLSKADYEKHKVYACEVTHQGLSSPVTKSFNRGEC
notes: IgG-like molecule: Codrituzumab Fab fused to the engineered Fc; copies: 2 + 2
B8: GPC3-specific binding protein DB-B229 (antibody)
heavy: QVQLVQSGAEVKKPGASVKVSCKASGYTFTDYEMHWVRQAPGQGLEWMGALDPKTGDTAYSQKFKGRVTLTADKSTSTAYMELSSLTSEDTAVYYCTRFYSYTYWGQGTLVTVSSASTKGPSVFPLAPSSKSTSGGTAALGCLVKDYFPEPVTVSWNSGALTSGVHTFPAVLQSSGLYSLSSVVTVPSSSLGTQTYICNVNHKPSNTKVDKKVEPKSCSRDFTPPTVKILQSSCDGGGHFPPTIQLLCLVSGYTPGTINITWLEDGQVMDVDLSTASTTQEGELASTQSELTLSQKHWLSDRTYTCQVTYQGHTFEDSTKKCADSNPRGVSVFLFPPKPKDTLMISRTPEVTCVVVDLAPSKGTVKFNWYVDGVEVHNAKTKPREKQRNGTLTVVSVLTVLHQDWLNGKEYKCKVTHPHLPRALEKTISKAKGQPREPQVYTLPPSREEMTKNQVSLTCLVKGFYPSDIAVEWESNGQPENNYKTTPPVLDSDGSFFLYSKLTVDKSRWQQGNVFSCSVMHEALHNHYTQKSLSLSPGK
light: DVVMTQSPLSLPVTPGEPASISCRSSQSLVHSNRNTYLHWYLQKPGQSPQLLIYKVSNRFSGVPDRFSGSGSGTDFTLKISRVEAEDVGVYYCSQNTHVPPTFGQGTKLEIKRTVAAPSVFIFPPSDEQLKSGTASVVCLLNNFYPREAKVQWKVDNALQSGNSQESVTEQDSKDSTYSLSSTLTLSKADYEKHKVYACEVTHQGLSSPVTKSFNRGEC
notes: as for B7
B9: binding protein DB366 (designed binder)
chain: CADSNPRGVSVFLFPPKPKDTLMISRTPEVTCVVVDLAPSKGTVKFNWYVDGVEVHNAKTKPREKQRNGTLTVVSVLTVLHQDWLNGKEYKCKVTHPHLPRALEKTISKAKGQPREPQVYTLPPSREEMTKNQVSLTCLVKGFYPSDIAVEWESNGQPENNYKTTPPVLDSDGSFFLYSKLTVDKSRWQQGNVFSCSVMHEALHNHYTQKSLSLSPGK
notes: as for B2
B10: binding protein DB-B63 (designed binder)
chain: CADSNPRGVSVFLFPPKPKDTLMISRTPEVTCVVVDLAPSKGTVNFNWYVDGVEVHNAKTKPREKQRNGTLTVVSVLTVLHQDWLNGKEYKCRVTHPHLPRALEKTISKAKGQPREPQVYTLPPSREEMTKNQVSLTCLVKGFYPSDIAVEWESNGQPENNYKTTPPVLDSDGSFFLYSKLTVDKSRWQQGNVFSCSVMHEALHNHYTQKSLSLSPGK
notes: as for B2

T1 sequence (P12319 26-205): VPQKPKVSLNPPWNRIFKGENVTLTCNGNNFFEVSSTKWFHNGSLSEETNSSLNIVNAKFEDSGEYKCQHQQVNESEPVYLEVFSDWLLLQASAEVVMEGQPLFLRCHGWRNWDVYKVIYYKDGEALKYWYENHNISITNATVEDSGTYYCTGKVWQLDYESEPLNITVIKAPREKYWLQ

The assay addresses T1, recombinant human FcεRIa extracellular region-mouse IgG2a Fc-6×His fusion protein (human; mouse, UniProt P12319 26-205).
T1 construct: extracellular domain; Self-produced; also called FcεRIa-mG2Ahis; DB3967; not shown: mouse IgG2a Fc
As to the kind of experiment: BLI (GatorBio), FcεRIa-mG2Ahis loaded on Anti-HIS probe, binding protein at 200, 50, 12.5 nM. The text has this:
In order to verify the binding ability of the binding proteins to FcεRIa, the Bio-layer Interferometry (BLI, GatorBio) was used to detect the affinity of the binding proteins to FcεRIa. The detailed affinity assay method can be found in the usage or application instructions of the GatorBio instrument, which was briefly described as follows: […]
In the case of B1, the dissociation constant Kd is about 1 nM.

As for B2, the Kd was about 1 nM.

For the molecule B3, the Kd was about 1 nM.

As to B4, the equilibrium dissociation constant (Kd) is about 1 nM.

For the molecule B5, the Kd was about 1 nM.

Take B6: the Kd is about 1 nM.

As to B7, the Kd was about 1 nM.

In the case of B8, the Kd is about 1 nM.

As for B9, the dissociation constant Kd is about 1 nM.

Take B10: the equilibrium dissociation constant (Kd) was about 1 nM.

Broadly, the Kd is the equilibrium constant for the complex coming apart.

The values are drawn from US20260103522A1 (LONGBIO PHARMA SUZHOU, published 2026).
